According to the nanobody polyreactivity screen of Harvey et al. (2022):

Assay: yeast display, Sf9 membrane polyspecificity reagent, FACS + sequencing; frameworks hold sequencing errors
How it was run: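 Galactose induction of a Saccharomyces cerevisiae BJ5465 synthetic nanobody display library ran 36–48 hours. The cells were then stained for 1 hour at 4 °C with 10% biotinylated, detergent-solubilized Sf9 membrane reagent, pulled down on streptavidin microbeads and FACS-sorted into low and high (top ~1%) gates on expression and reagent-binding fluorescence. Labels for polyreactivity follow the gate of origin.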

Sequence	polyreactivity (PSR sort gate)
QVQLVESGGGLVQAGGSLRLSCAASGGTFSYYAMGWYRQAPGKGELVAAISSGGSTNYADSVKGRFTISRDNAKNTVYLQMNSLKPEDTAVYYCAARYRFWGPYNYWGQGTQVTVSS	high polyreactivity
QVQLVESGGGLVQAGGSLRLSCAASGGTFTDYAMGWYRQAPGKERELVAAISSVGSTNYADSVKGRFTITRDNAQNTVYLQMNSLNPEDTAVYYCAADVYRYWISEYDDYWGQGTQVNVSS	low polyreactivity
QVQLVESGGGLVQAGGSLRLSCAASGGTFTFYAMGWYRQAPGKERELVATINWSGGSTYYADSVKGRFTISRDNAKNTVYLQMNSLKPEDTAVYYCNAAWPYKSVEYWGQGTQVTVSS	low polyreactivity
QVQLVESGGGLVQAGGSLRLSCAASGGTFTGYAMGWYRQAPGKERELVAAIRSRGGSTYYADSVKGRFTISRDNAKNTVYLQLNSLKPEDTAFYYCNAVSRFSYGYDYWGQGTQVSVSS	high polyreactivity
QVQLVESGGGLVQAGGSLRLSCAASGGTFTGYAMGWYRQEPGKERELVAGISRSGGSTYYADSVKGRFTISRDNAKNTVYLQMNSLKPEDTAVYYCAKDVLKYRYWYYPGYDYWGQGTQVTVSS	high polyreactivity
QVQLVESGGGLVQAGGSLRLSCAASGGTFTRYAMGWYRQAPGKEREFVAAISGSGGSTYYADSVKGRFTISRDNAKNTVYLQMNSLKPEDTAVYYCNKVPVYPPSYYWGQGTQVTVSS	low polyreactivity
QVQLVESGGGLVQAGGSLRLSCAASGGTFTTNAMGWYRQAPGKERELVAAITSSGVRTYYADSVKGRFTISRDNAKNTVYLQMNSLKPEDTAVYYCNAVTRYVRLTDDDYWGQGTQVTVSS	high polyreactivity
QVQLVESGGGLVQAGGSLRLSCAASGGTFTYYAKGWYRQAPGKERELVAAISWSDTSTYYADSVKGRFTISRDNAKNTVYLQMNSLKPEDTAVYYCAAEFYVRYQADYEYWGQGTQVTVSS	high polyreactivity
QVQLVESGGGLVQAGGSLRLSCAASGGTFTYYTMGWYRQAPRKERELVAAISTGGRTYYADSVKGRFTISRDNAKNTVYLQMNSLKPEDTAVYYCDADTYTSRSRYSGSGGYDYWGQGTQVTVSS	low polyreactivity
QVQLVESGGGLVQAGGSLRLSCAASGGTFVSYALGWSRQAPGKERELVAAITYSGGSTYYADSVKGRFTISRDTAKNTVYLQMNSLKPEDTAVYYCAADLGRNLLHTYYYWGQGTQVTVSS	low polyreactivity
QVQLVESGGGLVQAGGSLRLSCAASGGTFWIYAMGSYRQAPGKERELVAGISHGDSTYYADSVKGRFTISRDNAKNTVYLQMNSLKPEDTAVYYCARDYRNPPFAYEYWGQGTQVTVSS	low polyreactivity
QVQLVESGGGLVQAGGSLRLSCAASGGTFWYNAMGLYRQAPGKERELVANIRRSGGRTNYADSVKGRFTISRDNAKNTVYLHMNSLKPEDTAVYYCAARVTPYRGFYYWGQGTQVTVSS	high polyreactivity
QVQLVESGGGLVQAGGSLRLSCAASGGTFYDYAMGWYRQAPGKERELVAAISASGDSTYYADSVKGRFTISRDNAKNTVYLQMNSLKPEDTAVYYCAAEFTAFDGFDYWGQGTQVNVSS	low polyreactivity
QVQLVESGGGLVQAGGSLRLSCAASGGTFYFYAMVWYRQAPGKERELVAAISRSGGSTYYADSVKGRFTISRDNAKNTVYLQMNSLKPEDTAVYYCAARYTGGGIRYDYWGQGTQVTVSS	high polyreactivity
QVQLVESGGGLVQAGGSLRLSCAASGGTFYQYAMGWYIQAPGKERELVAAISRSGGRTYYADSVKGRFTISRDNAKNTVYLQMNSLIPEDTAVYYCAADDVGPPDFYYWGQGTQVTVSS	high polyreactivity
QVQLVESGGGLVQAGGSLRLSCAASGGTFYVNAMGWYRQAPGKERELVADISYSGGRTYYADSVKGRFTISRDNAKKTVYLQMNSLKPEDTAVYYCAADPYWVGYGSPFGYWGQGTQVTVSS	high polyreactivity

Sequence	polyreactivity (PSR sort gate)
QVQLVESGGGLVQAGGSLRLSCAASGGTFYYYAMGWYRQAPGKERELVAAINVSGGNTYYADSVKGRFTISRDNAKNTVYLQMNSLKPEDTAVYYCAADPGARYYYWGQGTQVTVSS	low polyreactivity
QVQLVESGGGLVQAGGSLRLSCAASGGTFYYYAMGWYRQAPGKERELVAAISWSGVSTSYADSVKGRFTISRDNAKNTVFLQMNSMKPEDTAVYYCAAGPFYYTGGHWGQGTQVTVSS	high polyreactivity
QVQLVESGGGLVQAGGSLRLSCAASGGTFYYYAMGWYRQAPGKERELVAAITGTGGRTYYADSVKGRFTISRDNAKNTVYLQMNSLKPEDTAVYYCAKYPAARAVDYWGQGTQVTVSS	high polyreactivity
QVQLVESGGGLVQAGGSLRLSCAASGGTFYYYAMGWYRQAPGKERELVATITWSGDSTNYADSVKGRFTISRDNAKNTVYLQMNSLKPEDTAVYYCAKDLTQSYEYDYWGQGTQVTVSS	low polyreactivity
QVQLVESGGGLVQAGGSLRLSCAASGGTGARNAMGWYRQAPGKERELVATITRRAGTTYYADSVKGRFTISRDNAKNTVYLQMNSLKPEDTAVYYCARVATWGYYPYLIPEVGYDYWGQGTQVTVSS	high polyreactivity
QVQLVESGGGLVQAGGSLRLSCAASGGTIAFNGMGWYRQAPGKERELVAAITWRSGSTYYADSVKGRFTISRDNAKNTVYLQMNSLKPEDTAVYYCAARLYRYTPFDYWGQGTQVTVSS	high polyreactivity
QVQLVESGGGLVQAGGSLRLSCAASGGTIAPYAMGWYRQAPGKERELVATISYSGTSTNYADSVKGRFTISRDNAKNTVYLQMNSLKPEDTAVYYCAKRYHQYRWRGWLWGFDYWGQGTQVTVSS	high polyreactivity
QVQLVESGGGLVQAGGSLRLSCAASGGTIGWYAMGWYRQAPGKERELVAAITSSGGTTFYADSVKGRFTISRDNAKNTVYLQMNSLKPEDTAVYYCAKRGKRPTRYKLGKYDYWGQGTQVTVSS	high polyreactivity
QVQLVESGGGLVQAGGSLRLSCAASGGTIRYYAMGWYSQAPWKERELVAAISVGGGRTYYADSVKGRFTISRDNAKNTVYLQMNSLKPEDTAVYYCAADYASWSNWGYEYWGQGTQVTVSS	high polyreactivity
QVQLVESGGGLVQAGGSLRLSCAASGGTISRYGMGWYRPAPRKERELVAAITRSGSTNYADSVKERFTISRDNAKYTVYLQMNSLKPEDTAVYYGATDKRGRIGGTFDYWGQGTQVTVSS	low polyreactivity
QVQLVESGGGLVQAGGSLRLSCAASGGTLDVYAMGWYRQAPGKEREFVAAISWSGGRTYYADSVKGRFTISRDNAKNTVYLQMNSLKPEDTAVYYCATRDRAGYYYWGQGTQVTVSS	high polyreactivity
QVQLVESGGGLVQAGGSLRLSCAASGGTLDYYVMAWYRQAPGKERELVAAISTNGGSTNYADSVKGRFTISRDNAKNTVYLQMNSLKPEDTAVYYCAATSDVYVFLEFDYWGQGTQVTVSS	low polyreactivity
QVQLVESGGGLVQAGGSLRLSCAASGGTLRGYAMGGYRQAPGKEREFDATISRRGGSTYYADSVKGRFTNSRDNAKNTVYLQMNSLKPEDTAVYYCAKQGQSDYYSWGQGTQVTVSS	high polyreactivity
QVQLVESGGGLVQAGGSLRLSCAASGGTLRYYAMGWYRQAPGKEREFVASISRSGGSTYYADSVKGRFTISRDNAKNTVYLQMNSLKPEDTAVYYCAAYWSPGYTTRRGYWGQGTQVTVSS	high polyreactivity
QVQLVESGGGLVQAGGSLRLSCAASGGTLRYYAMGWYRQAPGTEREFVASIARSGGSTYYADSVKGGFTISRDNAKNTVYLQMNRLKPEDTAVYYCADRVRLYRGFTKYDYWGQGTQVTVSS	high polyreactivity
QVQLVESGGGLVQAGGSLRLSCAASGGTLYYYAMGWSRQAPGKERELVADITNSGSTNYADSVKGRFTISRDNAKNTVYLQMNSLKPEDTAVYYCAAYSWSWYHPEFDYWGQGTQVTVSS	high polyreactivity
